Measured values published in IntAct's records for PubMed 30190310.

B1: Kelch repeat and BTB domain-containing protein 8 (Homo sapiens), Q8NFY9 (parent)
chain: MAASADLSKSSPTPNGIPSSDPASDAMDPFHACSILKQLKTMYDEGQLTDIVVEVDHGKTFSCHRNVLAAISPYFRSMFTSGLTESTQKEVRIVGVEAESMDLVLNYAYTSRVILTEANVQALFTAASIFQIPSIQDQCAKYMISHLDPQNSIGVFIFADHYGHQELGDRSKEYIRKKFLCVTKEQEFLQLTKDQLISILDSDDLNVDREEHVYESIIRWFEHEQNEREVHLPEIFAKCIRFPLMEDTFIEKIPPQFAQAIAKSCVEKGPSNTNGCTQRLGMTASEMIICFDAAHKHSGKKQTVPCLDIVTGRVFKLCKPPNDLREVGILVSPDNDIYIAGGYRPSSSEVSIDHKAENDFWMYDHSTNRWLSKPSLLRARIGCKLVYCCGKMYAIGGRVYEGDGRNSLKSVECYDSRENCWTTVCAMPVAMEFHNAVEYKEKIYVLQGEFFLFYEPQKDYWGFLTPMTVPRIQGLAAVYKDSIYYIAGTCGNHQRMFTVEAYDIELNKWTRKKDFPCDQSINPYLKLVLFQNKLHLFVRATQVTVEEHVFRTSRKNSLYQYDDIADQWMKVYETPDRLWDLGRHFECAVAKLYPQCLQKVL
B2: Kelch-like protein 12 (Homo sapiens), Q53G59 (parent)
chain: MGGIMAPKDIMTNTHAKSILNSMNSLRKSNTLCDVTLRVEQKDFPAHRIVLAACSDYFCAMFTSELSEKGKPYVDIQGLTASTMEILLDFVYTETVHVTVENVQELLPAACLLQLKGVKQACCEFLESQLDPSNCLGIRDFAETHNCVDLMQAAEVFSQKHFPEVVQHEEFILLSQGEVEKLIKCDEIQVDSEEPVFEAVINWVKHAKKEREESLPNLLQYVRMPLLTPRYITDVIDAEPFIRCSLQCRDLVDEAKKFHLRPELRSQMQGPRTRARLGANEVLLVVGGFGSQQSPIDVVEKYDPKTQEWSFLPSITRKRRYVASVSLHDRIYVIGGYDGRSRLSSVECLDYTADEDGVWYSVAPMNVRRGLAGATTLGDMIYVSGGFDGSRRHTSMERYDPNIDQWSMLGDMQTAREGAGLVVASGVIYCLGGYDGLNILNSVEKYDPHTGHWTNVTPMATKRSGAGVALLNDHIYVVGGFDGTAHLSSVEAYNIRTDSWTTVTSMTTPRCYVGATVLRGRLYAIAGYDGNSLLSSIECYDPIIDSWEVVTSMGTQRCDAGVCVLREK

Variants of: B1
Conditions: with fxl17_human FBXL17, Q9UF56
Target sequence in this assay (Q9UF56 whole entry): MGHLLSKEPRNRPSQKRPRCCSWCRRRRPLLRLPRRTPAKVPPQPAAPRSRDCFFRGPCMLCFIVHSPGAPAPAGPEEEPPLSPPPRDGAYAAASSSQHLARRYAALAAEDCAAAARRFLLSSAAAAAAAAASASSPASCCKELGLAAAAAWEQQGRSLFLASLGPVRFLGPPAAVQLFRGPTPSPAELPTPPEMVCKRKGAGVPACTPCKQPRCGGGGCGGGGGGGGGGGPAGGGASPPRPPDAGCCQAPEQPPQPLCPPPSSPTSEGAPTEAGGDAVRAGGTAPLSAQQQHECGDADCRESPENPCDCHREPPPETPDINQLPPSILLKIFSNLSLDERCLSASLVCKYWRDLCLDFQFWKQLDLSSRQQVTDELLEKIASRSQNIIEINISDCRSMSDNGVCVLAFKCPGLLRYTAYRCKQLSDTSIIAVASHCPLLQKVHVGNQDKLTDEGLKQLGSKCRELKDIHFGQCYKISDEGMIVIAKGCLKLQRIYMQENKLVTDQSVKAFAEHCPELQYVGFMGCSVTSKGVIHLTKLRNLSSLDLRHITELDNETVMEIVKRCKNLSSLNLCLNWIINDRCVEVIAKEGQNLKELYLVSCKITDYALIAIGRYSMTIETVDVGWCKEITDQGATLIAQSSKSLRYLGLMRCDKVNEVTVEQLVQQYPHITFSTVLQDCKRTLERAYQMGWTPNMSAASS

effect of a mutation on the interaction	Variant
disrupting interaction strength	L39D
decreasing interaction strength	L39A
increasing interaction strength	Y43A
disrupting interaction strength	Y43D
disrupting interaction strength	V67D
increasing interaction strength	V67A
with no effect	K40A
increasing interaction strength	K40D

Variants of: B2
Conditions: with fxl17_human FBXL17, Q9UF56
Target sequence in this assay (Q9UF56 whole entry): as above

effect of a mutation on the interaction	Variant
with no effect	MGGIMAPKDIMTNTHAKSILNSMNSLRKSNTLCDVTLRVEQKDFPAHRIVLAACSDYFCAMFTSELAEKGKPYVDIQGLTASTMEILLDFVYTETVHVTVENVQELLPAACLLQLKGVKQACCEFLESQLDPSNCLGIRDFAETHNCVDLMQAAEVFSQKHFPEVVQHEEFILLSQGEVEKLIKCDEIQVDSEEPVFEAVINWVKHAKKEREESLPNLLQYVRMPLLTPRYITDVIDAEPFIRCSLQCRDLVDEAKKFHLRPELRSQMQGPRTRARLGANEVLLVVGGFGSQQSPIDVVEKYDPKTQEWSFLPSITRKRRYVASVSLHDRIYVIGGYDGRSRLSSVECLDYTADEDGVWYSVAPMNVRRGLAGATTLGDMIYVSGGFDGSRRHTSMERYDPNIDQWSMLGDMQTAREGAGLVVASGVIYCLGGYDGLNILNSVEKYDPHTGHWTNVTPMATKRSGAGVALLNDHIYVVGGFDGTAHLSSVEAYNIRTDSWTTVTSMTTPRCYVGATVLRGRLYAIAGYDGNSLLSSIECYDPIIDSWEVVTSMGTQRCDAGVCVLREK [S67A]
disrupting interaction strength	MGGIMAPKDIMTNTHAKSILNSMNSLRKSNTLCDVTLRVEQKDFPAHRIVLAACSDYFCAMFTSELEEKGKPYVDIQGLTASTMEILLDFVYTETVHVTVENVQELLPAACLLQLKGVKQACCEFLESQLDPSNCLGIRDFAETHNCVDLMQAAEVFSQKHFPEVVQHEEFILLSQGEVEKLIKCDEIQVDSEEPVFEAVINWVKHAKKEREESLPNLLQYVRMPLLTPRYITDVIDAEPFIRCSLQCRDLVDEAKKFHLRPELRSQMQGPRTRARLGANEVLLVVGGFGSQQSPIDVVEKYDPKTQEWSFLPSITRKRRYVASVSLHDRIYVIGGYDGRSRLSSVECLDYTADEDGVWYSVAPMNVRRGLAGATTLGDMIYVSGGFDGSRRHTSMERYDPNIDQWSMLGDMQTAREGAGLVVASGVIYCLGGYDGLNILNSVEKYDPHTGHWTNVTPMATKRSGAGVALLNDHIYVVGGFDGTAHLSSVEAYNIRTDSWTTVTSMTTPRCYVGATVLRGRLYAIAGYDGNSLLSSIECYDPIIDSWEVVTSMGTQRCDAGVCVLREK [S67E]
with no effect	MGGIMAPKDIMTNTHAKSILNSMNSLRKSNTLCDVTLRVEQKDFPAHRIALAACSDYFCKMFTSELSEKGKPYVDIQGLTASTMEILLDFVYTETVHVTVENVQELLPAACLLQLKGVKQACCEFLESQLDPSNCLGIRDFAETHNCVDLMQAAEVFSQKHFPEVVQHEEFILLSQGEVEKLIKCDEIQVDSEEPVFEAVINWVKHAKKEREESLPNLLQYVRMPLLTPRYITDVIDAEPFIRCSLQCRDLVDEAKKFHLRPELRSQMQGPRTRARLGANEVLLVVGGFGSQQSPIDVVEKYDPKTQEWSFLPSITRKRRYVASVSLHDRIYVIGGYDGRSRLSSVECLDYTADEDGVWYSVAPMNVRRGLAGATTLGDMIYVSGGFDGSRRHTSMERYDPNIDQWSMLGDMQTAREGAGLVVASGVIYCLGGYDGLNILNSVEKYDPHTGHWTNVTPMATKRSGAGVALLNDHIYVVGGFDGTAHLSSVEAYNIRTDSWTTVTSMTTPRCYVGATVLRGRLYAIAGYDGNSLLSSIECYDPIIDSWEVVTSMGTQRCDAGVCVLREK [V50A;A60K]
